Test results reported in patent US11306156.
One block for each substance: values may come before it.

Key:
[1] = target: D3H44 Fab heavy chain L143E_K145T_Q179D, ABD2-His6 tagged; experiment: LCCA, SPR of light chain tags; L1:L2 DNA 1:3 normalized to 1:1; competing light chain m23
[2] = target: D3H44 Fab heavy chain L143E_K145T_Q179E, ABD2-His6 tagged; experiment: as above
[3] = target: D3H44 Fab heavy chain S186R, ABD2-His6 tagged; experiment: as above
[4] = target: D3H44 Fab heavy chain S186K, ABD2-His6 tagged; experiment: as above
[5] = target: D3H44 Fab heavy chain L143E_K145T_Q179D, ABD2-His6 tagged; experiment: LCCA, SPR of light chain tags; L1:L2 DNA 1:3 normalized to 1:1; competing light chain m18
[6] = target: D3H44 Fab heavy chain S186R, ABD2-His6 tagged; experiment: as above
[7] = target: D3H44 Fab heavy chain S186K, ABD2-His6 tagged; experiment: as above
[8] = target: D3H44 Fab heavy chain L143E_K145T_Q179D, ABD2-His6 tagged; experiment: LCCA, SPR of light chain tags; L1:L2 DNA 1:9 normalized to 1:1; competing light chain m18
[9] = target: D3H44 Fab heavy chain S186K, ABD2-His6 tagged; experiment: as above
[10] = target: D3H44 Fab heavy chain L143E_K145T_Q179E, ABD2-His6 tagged; experiment: LCCA, SPR of light chain tags; L1:L2 DNA 1:3 normalized to 1:1; competing light chain m16
[11] = target: D3H44 Fab heavy chain S186R, ABD2-His6 tagged; experiment: as above
[12] = target: D3H44 Fab heavy chain L143E_K145T_Q179E, ABD2-His6 tagged; experiment: LCCA, SPR of light chain tags; L1:L2 DNA 1:9 normalized to 1:1; competing light chain m16
[13] = target: D3H44 Fab heavy chain L143R, ABD2-His6 tagged; experiment: as above
[14] = target: D3H44 Fab heavy chain L143R, ABD2-His6 tagged; experiment: LCCA, SPR of light chain tags; L1:L2 DNA 1:3 normalized to 1:1; competing light chain m16
[15] = target: D3H44 Fab heavy chain L143E_K145T_Q179D, ABD2-His6 tagged; experiment: LCCA, SPR of light chain tags; L1:L2 DNA 1:3 normalized to 1:1; competing light chain m19
[16] = target: D3H44 Fab heavy chain S186R, ABD2-His6 tagged; experiment: as above
[17] = target: D3H44 Fab heavy chain S186K, ABD2-His6 tagged; experiment: as above
[18] = target: D3H44 Fab heavy chain L143E_K145T_Q179D, ABD2-His6 tagged; experiment: LCCA, SPR of light chain tags; L1:L2 DNA 1:9 normalized to 1:1; competing light chain m19
[19] = target: D3H44 Fab heavy chain S186K, ABD2-His6 tagged; experiment: as above
[20] = target: D3H44 Fab heavy chain Q179K, ABD2-His6 tagged; experiment: LCCA, SPR of light chain tags; L1:L2 DNA 1:9 normalized to 1:1; competing light chain m16
[21] = target: D3H44 Fab heavy chain Q179R, ABD2-His6 tagged; experiment: as above
[22] = target: D3H44 Fab heavy chain S186R, ABD2-His6 tagged; experiment: as above
[23] = target: D3H44 Fab heavy chain S186K, ABD2-His6 tagged; experiment: as above
[24] = target: D3H44 Fab heavy chain Q179K, ABD2-His6 tagged; experiment: LCCA, SPR of light chain tags; L1:L2 DNA 1:3 normalized to 1:1; competing light chain m16
[25] = target: D3H44 Fab heavy chain Q179R, ABD2-His6 tagged; experiment: as above
[26] = target: D3H44 Fab heavy chain S186K, ABD2-His6 tagged; experiment: as above
[27] = target: D3H44 Fab heavy chain L124A_L143F_Q179K, ABD2-His6 tagged; experiment: LCCA, SPR of light chain tags; L1:L2 DNA 1:9 normalized to 1:1; competing light chain m13
[28] = target: D3H44 Fab heavy chain L124W_L143E_K145T_Q179E, ABD2-His6 tagged; experiment: as above
[29] = target: D3H44 Fab heavy chain L124A_Q179K, ABD2-His6 tagged; experiment: LCCA, SPR of light chain tags; L1:L2 DNA 1:3 normalized to 1:1; competing light chain m14
[30] = target: D3H44 Fab heavy chain L124W_L143F_K145T_Q179E, ABD2-His6 tagged; experiment: as above
[31] = target: D3H44 Fab heavy chain L124A_L143F_Q179K, ABD2-His6 tagged; experiment: as above
[32] = target: D3H44 Fab heavy chain L124W_L143E_K145T_Q179E, ABD2-His6 tagged; experiment: as above
[33] = target: D3H44 Fab heavy chain L124A_L143F_Q179K, ABD2-His6 tagged; experiment: LCCA, SPR of light chain tags; L1:L2 DNA 1:3 normalized to 1:1; competing light chain m13
[34] = target: D3H44 Fab heavy chain L124W_L143F_K145T_Q179E, ABD2-His6 tagged; experiment: LCCA, SPR of light chain tags; L1:L2 DNA 1:3 normalized to 1:1; competing light chain m15
[35] = target: D3H44 Fab heavy chain L124W_L143F_K145T_Q179E, ABD2-His6 tagged; experiment: LCCA, SPR of light chain tags; L1:L2 DNA 1:3 normalized to 1:1; competing light chain m12
[36] = target: D3H44 Fab heavy chain L124W_L143E_K145T_Q179E, ABD2-His6 tagged; experiment: as above

Substance: D3H44 light chain Q124E_Q160E_T178E, HA or FLAG tagged
H2L2:H2L1 normalized median ratio [20]: 84%
H1L1:H1L2 normalized median ratio [12]: 10%
H2L2:H2L1 normalized median ratio [21]: 86%
H2L2:H2L1 normalized median ratio [22]: 87%
H2L2:H2L1 normalized median ratio [23]: 90%
H2L2:H2L1 normalized median ratio [24]: 95%
H1L1:H1L2 normalized median ratio [10]: 9%
H2L2:H2L1 normalized median ratio [25]: 95%
H2L2:H2L1 normalized median ratio [11]: 94%
H2L2:H2L1 normalized median ratio [26]: 98%

Substance: D3H44 light chain Q124E_V133W_S176T_T178E_T180E, HA or FLAG tagged
H1L1:H1L2 normalized median scalar value ln(r1/f1) [27]: 2.69
H2L2:H2L1 normalized median ratio [28]: 8%
H1L1:H1L2 normalized median ratio [29]: 97%
H1L1:H1L2 normalized median scalar value ln(r1/f1) [29]: 3.59
H2L2:H2L1 normalized median ratio [30]: 30%
H1L1:H1L2 normalized median ratio [31]: 97%
H1L1:H1L2 normalized median scalar value ln(r1/f1) [31]: 3.61
H2L2:H2L1 normalized median ratio [32]: 22%
H1L1:H1L2 normalized median ratio [33]: 95%
H1L1:H1L2 normalized median scalar value ln(r1/f1) [33]: 2.88

Substance: D3H44 light chain S131K_V133A_S176T_T178L, HA or FLAG tagged
H2L2:H2L1 normalized median ratio [34]: 69%
H2L2:H2L1 normalized median ratio [35]: 70%
H2L2:H2L1 normalized median ratio [36]: 78%

Second part, the substance after the results:

H1L1:H1L2 normalized median ratio [1]: 16%
H1L1:H1L2 normalized median ratio [2]: 16%
H2L2:H2L1 normalized median ratio [3]: 97%
H2L2:H2L1 normalized median ratio [4]: 97%
H1L1:H1L2 normalized median ratio [5]: 15%
H2L2:H2L1 normalized median ratio [6]: 97%
H2L2:H2L1 normalized median ratio [7]: 98%
H1L1:H1L2 normalized median ratio [8]: 11%
H2L2:H2L1 normalized median ratio [9]: 95%
H1L1:H1L2 normalized median ratio [10]: 15%
H2L2:H2L1 normalized median ratio [11]: 96%
Substance: D3H44 light chain Q124E_T180E, HA or FLAG tagged

H1L1:H1L2 normalized median ratio [12]: 8%
H2L2:H2L1 normalized median ratio [13]: 89%
H1L1:H1L2 normalized median ratio [10]: 7%
H2L2:H2L1 normalized median ratio [14]: 95%
Substance: D3H44 light chain Q124E_V133E, HA or FLAG tagged

H1L1:H1L2 normalized median ratio [15]: 85%
H1L1:H1L2 normalized median scalar value ln(r1/f1) [15]: 1.74
H2L2:H2L1 normalized median ratio [16]: 3%
H2L2:H2L1 normalized median ratio [17]: 2%
H1L1:H1L2 normalized median ratio [18]: 89%
H1L1:H1L2 normalized median scalar value ln(r1/f1) [18]: 2.05
H2L2:H2L1 normalized median ratio [19]: 5%
Substance: D3H44 light chain Q124K_T178R, HA or FLAG tagged
